The results in this text go back to patent US20260250318A1, “COMPOSITIONS AND METHODS FOR CROSSING THE BLOOD BRAIN BARRIER” (VOYAGER THERAPEUTICS, INC., priority 2022, published 2026).

Experiment [1] addresses T1, AAVR (universal AAV entry factor) expressed on HEK 293T cells (UniProt Q8IZA0 1-1049).
T1 construct: whole, on cells; also called AAVR positive control
T1 sequence: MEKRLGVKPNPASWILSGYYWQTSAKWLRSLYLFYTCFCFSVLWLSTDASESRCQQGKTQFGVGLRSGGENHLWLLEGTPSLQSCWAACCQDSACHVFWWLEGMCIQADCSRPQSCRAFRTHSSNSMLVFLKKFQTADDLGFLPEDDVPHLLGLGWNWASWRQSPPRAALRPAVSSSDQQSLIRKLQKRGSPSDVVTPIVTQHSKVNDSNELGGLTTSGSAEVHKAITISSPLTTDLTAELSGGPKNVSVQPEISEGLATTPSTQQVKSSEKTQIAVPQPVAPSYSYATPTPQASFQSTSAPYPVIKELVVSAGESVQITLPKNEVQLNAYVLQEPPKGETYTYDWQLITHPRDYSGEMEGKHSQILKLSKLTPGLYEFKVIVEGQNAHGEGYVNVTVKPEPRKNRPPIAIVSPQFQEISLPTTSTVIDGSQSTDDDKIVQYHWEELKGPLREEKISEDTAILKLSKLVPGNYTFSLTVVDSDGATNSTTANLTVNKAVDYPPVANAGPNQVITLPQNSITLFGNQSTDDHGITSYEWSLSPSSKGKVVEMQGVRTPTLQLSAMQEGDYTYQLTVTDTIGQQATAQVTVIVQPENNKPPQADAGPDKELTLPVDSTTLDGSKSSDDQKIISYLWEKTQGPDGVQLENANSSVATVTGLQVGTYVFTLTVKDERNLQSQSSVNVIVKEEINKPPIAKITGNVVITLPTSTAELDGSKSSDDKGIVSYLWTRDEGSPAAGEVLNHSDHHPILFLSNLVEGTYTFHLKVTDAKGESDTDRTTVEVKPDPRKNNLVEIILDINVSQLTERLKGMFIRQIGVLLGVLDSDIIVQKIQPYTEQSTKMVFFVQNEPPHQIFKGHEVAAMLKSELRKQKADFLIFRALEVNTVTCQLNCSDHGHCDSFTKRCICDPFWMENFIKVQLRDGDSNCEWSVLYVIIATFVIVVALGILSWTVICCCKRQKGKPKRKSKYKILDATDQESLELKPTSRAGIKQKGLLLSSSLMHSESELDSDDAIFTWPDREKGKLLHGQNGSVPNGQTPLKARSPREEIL
Kind of experiment: binding/internalization: AAV incubated 2 or 3 h with AAVR transfected HEK 293T cells, washed, viral genomes quantified.

In experiment [2] the target is T2, library of over 5,500 cDNAs overexpressed in human cells (ALPL) (Homo sapiens, UniProt P05186).
T2 construct: expressed in transfected cells
T2 sequence (P05186 18-501): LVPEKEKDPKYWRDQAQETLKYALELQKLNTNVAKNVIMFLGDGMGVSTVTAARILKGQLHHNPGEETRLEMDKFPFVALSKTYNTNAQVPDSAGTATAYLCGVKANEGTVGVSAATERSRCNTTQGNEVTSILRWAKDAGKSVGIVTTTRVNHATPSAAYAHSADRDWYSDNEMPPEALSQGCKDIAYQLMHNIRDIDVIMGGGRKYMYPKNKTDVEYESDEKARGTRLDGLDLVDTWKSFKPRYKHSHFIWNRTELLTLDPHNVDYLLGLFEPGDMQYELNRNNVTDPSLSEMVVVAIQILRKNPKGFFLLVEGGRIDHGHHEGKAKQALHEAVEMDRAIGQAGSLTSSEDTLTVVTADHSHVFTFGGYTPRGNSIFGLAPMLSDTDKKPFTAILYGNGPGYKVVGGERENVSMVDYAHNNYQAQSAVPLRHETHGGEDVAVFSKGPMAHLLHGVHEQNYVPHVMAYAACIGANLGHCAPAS
Description: Cell binding array assay for receptor identification. Conditions: detected with anti-AAV9 antibody. The source says:
A cell binding array assay was then used to identify a receptor for the TTM-001 and TTM-002 capsid variants. Briefly, a library of over 5,500 cDNAs was overexpressed in human cells. Cells were contacted with a test ligand, e.g., AAV viral particles comprising a TTM-001 capsid variant or an AAV9 control capsid, which was applied to the array. Binding of the TTM-001 capsid variant or the AAV9 control capsid to the cells was detected using an anti-AAV9 antibody followed by a labeled anti-IgG detection antibody. […] This interacting protein was identified as the GPI-anchored protein, alkaline phosphatase issue-nonspecific isozyme (NM_000478.4, which is incorporated by reference herein) (ALPL). ALPL is part of a family of membrane-bound glycoproteins that hydrolyze monophosphate esters at a high pH (see, e.g., Weiss et al., Isolation and characterization of a cDNA encoding a human liver/bone/kidney-type alkaline phosphatase. Proc. Natl. Acad. Sci., 83:7182-7186 (1986), the contents of which are hereby incorporated by reference in their entirety).

Residue numbers refer to the chain shown, from its start.

B1: TTM-002 capsid variant (AAV particle comprising the TTM-002 AAV9 capsid variant) (other)
chain 1: MAADGYLPDWLEDNLSEGIREWWALKPGAPQPKANQQHQDNARGLVLPGYKYLGPGNGLDKGEPVNAADAAALEHDKAYDQQLKAGDNPYLKYNHADAEFQERLKEDTSFGGNLGRAVFQAKKRLLEPLGLVEEAAKTAPGKKRPVEQSPQEPDSSAGIGKSGAQPAKKRLNFGQTGDTESVPDPQPIGEPPAAPSGVGSLTMASGGGAPVADNNEGADGVGSSSGNWHCDSQWLGDRVITTSTRTWALPTYNNHLYKQISNSTSGGSSNDNAYFGYSTPWGYFDFNRFHCHFSPRDWQRLINNNWGFRPKRLNFKLFNIQVKEVTDNNGVKTIANNLTSTVQVFTDSDYQLPYVLGSAHEGCLPPFPADVFMIPQYGYLTLNDGSQAVGRSSFYCLEYFPSQMLRTGNNFQFSYEFENVPFHSSYAHSQSLDRLMNPLIDQYLYYLSKTINGHDSPHKSGQNQQTLKFSVAGPSNMAVQGRNYIPGPSYRQQRVSTTVTQNNNSEFAWPGASSWALNGRNSLMNPGPAMASHKEGEDRFFPLSGSLIFGKQGTGRDNVDADKVMITNEEEIKTTNPVATESYGQVATNHQSAQAQAQTGWVQNQGILPGMVWQDRDVYLQGPIWAKIPHTDGNFHPSPLMGGFGMKHPPPQILIKNTPVPADPPTAFNKDKLNSFITQYSTGQVSVEIEWELQKENSKRWNPEIQYTSNYYKSNNVEFAVNTEGVYSEPRPIGTRYLTRNL
chain 2: TAPGKKRPVEQSPQEPDSSAGIGKSGAQPAKKRLNFGQTGDTESVPDPQPIGEPPAAPSGVGSLTMASGGGAPVADNNEGADGVGSSSGNWHCDSQWLGDRVITTSTRTWALPTYNNHLYKQISNSTSGGSSNDNAYFGYSTPWGYFDFNRFHCHFSPRDWQRLINNNWGFRPKRLNFKLFNIQVKEVTDNNGVKTIANNLTSTVQVFTDSDYQLPYVLGSAHEGCLPPFPADVFMIPQYGYLTLNDGSQAVGRSSFYCLEYFPSQMLRTGNNFQFSYEFENVPFHSSYAHSQSLDRLMNPLIDQYLYYLSKTINGHDSPHKSGQNQQTLKFSVAGPSNMAVQGRNYIPGPSYRQQRVSTTVTQNNNSEFAWPGASSWALNGRNSLMNPGPAMASHKEGEDRFFPLSGSLIFGKQGTGRDNVDADKVMITNEEEIKTTNPVATESYGQVATNHQSAQAQAQTGWVQNQGILPGMVWQDRDVYLQGPIWAKIPHTDGNFHPSPLMGGFGMKHPPPQILIKNTPVPADPPTAFNKDKLNSFITQYSTGQVSVEIEWELQKENSKRWNPEIQYTSNYYKSNNVEFAVNTEGVYSEPRPIGTRYLTRNL
chain 3: MASGGGAPVADNNEGADGVGSSSGNWHCDSQWLGDRVITTSTRTWALPTYNNHLYKQISNSTSGGSSNDNAYFGYSTPWGYFDFNRFHCHFSPRDWQRLINNNWGFRPKRLNFKLFNIQVKEVTDNNGVKTIANNLTSTVQVFTDSDYQLPYVLGSAHEGCLPPFPADVFMIPQYGYLTLNDGSQAVGRSSFYCLEYFPSQMLRTGNNFQFSYEFENVPFHSSYAHSQSLDRLMNPLIDQYLYYLSKTINGHDSPHKSGQNQQTLKFSVAGPSNMAVQGRNYIPGPSYRQQRVSTTVTQNNNSEFAWPGASSWALNGRNSLMNPGPAMASHKEGEDRFFPLSGSLIFGKQGTGRDNVDADKVMITNEEEIKTTNPVATESYGQVATNHQSAQAQAQTGWVQNQGILPGMVWQDRDVYLQGPIWAKIPHTDGNFHPSPLMGGFGMKHPPPQILIKNTPVPADPPTAFNKDKLNSFITQYSTGQVSVEIEWELQKENSKRWNPEIQYTSNYYKSNNVEFAVNTEGVYSEPRPIGTRYLTRNL
As for B1, the “fold change in viral gene expression (2^-ΔΔCT) relative to pCMV6 transfected cells” value in experiment [1] stood at 3.2 fold.

B2: TTM-001: AAV9 capsid variant comprising SPHSKA (SEQ ID NO: 941) in loop IV (protein)
chain 1: B1 chain 1 with H454S, D455G, K459S, S460K, G461A
chain 2: GSGSPHSKAQNQQT
Consider B2, for which, in experiment [2], the “interaction with ALPL in cell binding array” value is given as “a unique interaction with the TTM-001 capsid variant”.
